{
  "source": "patent US20120237948",
  "molecular_target": "MMP13-undigested human type II collagen (UniProt P02458)",
  "sequence (P02458 182-1241)": "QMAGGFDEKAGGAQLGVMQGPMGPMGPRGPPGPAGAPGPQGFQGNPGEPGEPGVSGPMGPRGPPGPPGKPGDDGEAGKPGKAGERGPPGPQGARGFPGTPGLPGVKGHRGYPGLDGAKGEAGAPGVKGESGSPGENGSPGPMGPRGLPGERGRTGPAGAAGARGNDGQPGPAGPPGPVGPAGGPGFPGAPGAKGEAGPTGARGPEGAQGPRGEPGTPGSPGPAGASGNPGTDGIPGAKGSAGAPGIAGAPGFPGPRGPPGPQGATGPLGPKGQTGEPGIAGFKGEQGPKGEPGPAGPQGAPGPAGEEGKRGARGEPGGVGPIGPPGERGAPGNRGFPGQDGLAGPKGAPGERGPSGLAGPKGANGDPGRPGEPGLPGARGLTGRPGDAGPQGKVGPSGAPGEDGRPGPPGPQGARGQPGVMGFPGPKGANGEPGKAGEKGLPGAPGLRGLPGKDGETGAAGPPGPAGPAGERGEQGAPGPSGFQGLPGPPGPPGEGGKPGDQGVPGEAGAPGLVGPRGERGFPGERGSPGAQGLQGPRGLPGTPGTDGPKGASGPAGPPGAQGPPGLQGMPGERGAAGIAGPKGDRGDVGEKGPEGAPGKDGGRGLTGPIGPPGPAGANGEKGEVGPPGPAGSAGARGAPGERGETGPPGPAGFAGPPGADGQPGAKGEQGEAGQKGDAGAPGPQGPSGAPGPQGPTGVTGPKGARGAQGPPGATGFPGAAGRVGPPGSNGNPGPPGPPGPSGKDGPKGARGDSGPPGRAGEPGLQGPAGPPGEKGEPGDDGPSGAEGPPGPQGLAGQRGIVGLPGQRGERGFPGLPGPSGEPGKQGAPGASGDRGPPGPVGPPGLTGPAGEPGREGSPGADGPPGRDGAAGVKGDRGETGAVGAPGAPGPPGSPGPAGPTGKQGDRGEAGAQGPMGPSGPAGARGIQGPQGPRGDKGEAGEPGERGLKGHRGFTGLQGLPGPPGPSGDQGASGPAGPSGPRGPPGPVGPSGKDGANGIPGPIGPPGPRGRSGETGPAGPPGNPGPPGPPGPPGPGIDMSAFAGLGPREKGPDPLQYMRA",
  "data": [
    {"substance": "activated human MMP13", "values": [
      {"measurement": "amount of the collagen neoepitope in the enzyme-reaction buffer (sandwich ELISA of Example 4)", "value": "the measurements of the neoepitope increased in a manner dependent on the dose of MMP13 added"}
    ]}
  ]
}
